Measured values reported in patent US20240270846A1 (published 2024).
Changes are numbered by the printed parent chain. In names and notes the source's numbering stands.

B1: GLS3000 N28W one-arm antibody (H chain CE115HA000) (antibody, human IgG1, kappa, L234A L235A, N297A, name in Kabat numbering)
heavy: QVQLVESGGGVVQPGRSLRLSCAASGFTFSNAWMHWVRQAPGKGLEWVAQIKAKSNNYATYYAESVKGRFTISRDDSKNSLYLQMNSLKTEDTAVYYCRYVHYGAYYGVDAWGQGTTVTVSSASTKGPSVFPLAPSSKSTSGGTAALGCLVKDYFPEPVTVSWNSGALTSGVHTFPAVLQSSGLYSLSSVVTVPSSSLGTQTYICNVNHKPSNTKVDKKVEPKSCDKTHTCPPCPAPEAAGGPSVFLFPPKPKDTLMISRTPEVTCVVVDVSHEDPEVKFNWYVDGVEVHNAKTKPREEQYASTYRVVSVLTVLHQDWLNGKEYKCKVSNKALPAPIEKTISKAKGQPREPQVYTLPPSRCELTKNQVSLSCAVKGFYPSDIAVEWESNGQPENNYKTTPPVLDSDGSFFLVSKLTVDKSRWQQGNVFSCSVMHEALHNHYTQKSLSLSPDYKDDDDK
chain: EPKSSDKTHTCPPCPAPELLGGPSVFLFPPKPKDTLMISRTPEVTCVVVDVSHEDPEVKFNWYVDGVEVHNAKTKPREEQYNSTYRVVSVLTVLHQDWLNGKEYKCKVSNKALPAPIEKTISKAKGQPREPQVCTLPPSRDELTKNQVSLWCLVKGFYPSDIAVEWESNGQPENNYKTTPPVLDSDGSFFLYSKLTVDKSRWQQGNVFSCSVMHEALHNRYTQKSLSLSP
light: DIVMTQSPLSLPVTPGEPASISCRSSQSLVHSWRNTYLHWYQQKPGQAPRLLIYKVSNRFSGVPDRFSGSGSGTDFTLKISRVEAEDVGVYYCGQGTQVPYTFGQGTKLEIKRTVAAPSVFIFPPSDEQLKSGTASVVCLLNNFYPREAKVQWKVDNALQSGNSQESVTEQDSKDSTYSLSSTLTLSKADYEKHKVYACEVTHQGLSSPVTKSFNRGEC
notes: one-arm antibody
B2: GLS3000 N28Y one-arm antibody (H chain CE115HA000) (antibody, human IgG1, kappa, L234A L235A, N297A, name in Kabat numbering)
heavy: B1 heavy
chain: B1 chain
light: B1 light with W33Y
notes: one-arm antibody
B3: GLS3000 N30A one-arm antibody (H chain CE115HA000) (antibody, human IgG1, kappa, L234A L235A, N297A, name in Kabat numbering)
heavy: B1 heavy
chain: B1 chain
light: B1 light with W33N, N35A
notes: one-arm antibody
B4: GLS3000 N30D one-arm antibody (H chain CE115HA000) (antibody, human IgG1, kappa, L234A L235A, N297A, name in Kabat numbering)
heavy: B1 heavy
chain: B1 chain
light: B1 light with W33N, N35D
notes: one-arm antibody
B5: GLS3000 N30E one-arm antibody (H chain CE115HA000) (antibody, human IgG1, kappa, L234A L235A, N297A, name in Kabat numbering)
heavy: B1 heavy
chain: B1 chain
light: B1 light with W33N, N35E
notes: one-arm antibody
B6: GLS3000 N30F one-arm antibody (H chain CE115HA000) (antibody, human IgG1, kappa, L234A L235A, N297A, name in Kabat numbering)
heavy: B1 heavy
chain: B1 chain
light: B1 light with W33N, N35F
notes: one-arm antibody
B7: GLS3000 N30G one-arm antibody (H chain CE115HA000) (antibody, human IgG1, kappa, L234A L235A, N297A, name in Kabat numbering)
heavy: B1 heavy
chain: B1 chain
light: B1 light with W33N, N35G
notes: one-arm antibody
B8: GLS3000 N30H one-arm antibody (H chain CE115HA000) (antibody, human IgG1, kappa, L234A L235A, N297A, name in Kabat numbering)
heavy: B1 heavy
chain: B1 chain
light: B1 light with W33N, N35H
notes: one-arm antibody
B9: GLS3000 N30I one-arm antibody (H chain CE115HA000) (antibody, human IgG1, kappa, L234A L235A, N297A, name in Kabat numbering)
heavy: B1 heavy
chain: B1 chain
light: B1 light with W33N, N35I
notes: one-arm antibody
B10: GLS3000 N30K one-arm antibody (H chain CE115HA000) (antibody, human IgG1, kappa, L234A L235A, N297A, name in Kabat numbering)
heavy: B1 heavy
chain: B1 chain
light: B1 light with W33N, N35K
notes: one-arm antibody
B11: GLS3000 N30L one-arm antibody (H chain CE115HA000) (antibody, human IgG1, kappa, L234A L235A, N297A, name in Kabat numbering)
heavy: B1 heavy
chain: B1 chain
light: B1 light with W33N, N35L
notes: one-arm antibody
B12: GLS3000 N30M one-arm antibody (H chain CE115HA000) (antibody, human IgG1, kappa, L234A L235A, N297A, name in Kabat numbering)
heavy: B1 heavy
chain: B1 chain
light: B1 light with W33N, N35M
notes: one-arm antibody
B13: GLS3000 N30P one-arm antibody (H chain CE115HA000) (antibody, human IgG1, kappa, L234A L235A, N297A, name in Kabat numbering)
heavy: B1 heavy
chain: B1 chain
light: B1 light with W33N, N35P
notes: one-arm antibody
B14: GLS3000 N30Q one-arm antibody (H chain CE115HA000) (antibody, human IgG1, kappa, L234A L235A, N297A, name in Kabat numbering)
heavy: B1 heavy
chain: B1 chain
light: B1 light with W33N, N35Q
notes: one-arm antibody
B15: GLS3000 N30R one-arm antibody (H chain CE115HA000) (antibody, human IgG1, kappa, L234A L235A, N297A, name in Kabat numbering)
heavy: B1 heavy
chain: B1 chain
light: B1 light with W33N, N35R
notes: one-arm antibody
B16: GLS3000 N30S one-arm antibody (H chain CE115HA000) (antibody, human IgG1, kappa, L234A L235A, N297A, name in Kabat numbering)
heavy: B1 heavy
chain: B1 chain
light: B1 light with W33N, N35S
notes: one-arm antibody
B17: GLS3000 N30T one-arm antibody (H chain CE115HA000) (antibody, human IgG1, kappa, L234A L235A, N297A, name in Kabat numbering)
heavy: B1 heavy
chain: B1 chain
light: B1 light with W33N, N35T
notes: one-arm antibody
B18: GLS3000 N30V one-arm antibody (H chain CE115HA000) (antibody, human IgG1, kappa, L234A L235A, N297A, name in Kabat numbering)
heavy: B1 heavy
chain: B1 chain
light: B1 light with W33N, N35V
notes: one-arm antibody
B19: GLS3000 N30W one-arm antibody (H chain CE115HA000) (antibody, human IgG1, kappa, L234A L235A, N297A, name in Kabat numbering)
heavy: B1 heavy
chain: B1 chain
light: B1 light with W33N, N35W
notes: one-arm antibody
B20: GLS3000 N30Y one-arm antibody (H chain CE115HA000) (antibody, human IgG1, kappa, L234A L235A, N297A, name in Kabat numbering)
heavy: B1 heavy
chain: B1 chain
light: B1 light with W33N, N35Y
notes: one-arm antibody
B21: GLS3000 N53A one-arm antibody (H chain CE115HA000) (antibody, human IgG1, kappa, L234A L235A, N297A, name in Kabat numbering)
heavy: B1 heavy
chain: B1 chain
light: B1 light with W33N, N58A
notes: one-arm antibody
B22: GLS3000 N53D one-arm antibody (H chain CE115HA000) (antibody, human IgG1, kappa, L234A L235A, N297A, name in Kabat numbering)
heavy: B1 heavy
chain: B1 chain
light: B1 light with W33N, N58D
notes: one-arm antibody
B23: GLS3000 Q27D one-arm antibody (H chain CE115HA000) (antibody, human IgG1, kappa, L234A L235A, N297A, name in Kabat numbering)
heavy: B1 heavy
chain: B1 chain
light: B1 light with Q27D, W33N
notes: one-arm antibody
B24: GLS3000 Q27E one-arm antibody (H chain CE115HA000) (antibody, human IgG1, kappa, L234A L235A, N297A, name in Kabat numbering)
heavy: B1 heavy
chain: B1 chain
light: B1 light with Q27E, W33N
notes: one-arm antibody
B25: GLS3000 Q27L one-arm antibody (H chain CE115HA000) (antibody, human IgG1, kappa, L234A L235A, N297A, name in Kabat numbering)
heavy: B1 heavy
chain: B1 chain
light: B1 light with Q27L, W33N
notes: one-arm antibody
B26: GLS3000 Q27P one-arm antibody (H chain CE115HA000) (antibody, human IgG1, kappa, L234A L235A, N297A, name in Kabat numbering)
heavy: B1 heavy
chain: B1 chain
light: B1 light with Q27P, W33N
notes: one-arm antibody
B27: GLS3000 Q27R one-arm antibody (H chain CE115HA000) (antibody, human IgG1, kappa, L234A L235A, N297A, name in Kabat numbering)
heavy: B1 heavy
chain: B1 chain
light: B1 light with Q27R, W33N
notes: one-arm antibody
B28: GLS3000 R24A one-arm antibody (H chain CE115HA000) (antibody, human IgG1, kappa, L234A L235A, N297A, name in Kabat numbering)
heavy: B1 heavy
chain: B1 chain
light: B1 light with R24A, W33N
notes: one-arm antibody
B29: GLS3000 R24D one-arm antibody (H chain CE115HA000) (antibody, human IgG1, kappa, L234A L235A, N297A, name in Kabat numbering)
heavy: B1 heavy
chain: B1 chain
light: B1 light with R24D, W33N
notes: one-arm antibody
B30: GLS3000 R24E one-arm antibody (H chain CE115HA000) (antibody, human IgG1, kappa, L234A L235A, N297A, name in Kabat numbering)
heavy: B1 heavy
chain: B1 chain
light: B1 light with R24E, W33N
notes: one-arm antibody
B31: GLS3000 R24G one-arm antibody (H chain CE115HA000) (antibody, human IgG1, kappa, L234A L235A, N297A, name in Kabat numbering)
heavy: B1 heavy
chain: B1 chain
light: B1 light with R24G, W33N
notes: one-arm antibody
B32: GLS3000 R24P one-arm antibody (H chain CE115HA000) (antibody, human IgG1, kappa, L234A L235A, N297A, name in Kabat numbering)
heavy: B1 heavy
chain: B1 chain
light: B1 light with R24P, W33N
notes: one-arm antibody

biological target: T1, CD3 epsilon homodimer protein (UniProt P07766 23-126); assay: SPR, CD3e homodimer on chip;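 note: surface plasmon resonance at 25 degrees C, antibodies flowed as analyte over CD3 epsilon homodimer amine-coupled to a CM4 chip, running buffer HBS-EP+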
T1 construct: also called CD3 (CD3 epsilon)
T1 sequence (P07766 23-126): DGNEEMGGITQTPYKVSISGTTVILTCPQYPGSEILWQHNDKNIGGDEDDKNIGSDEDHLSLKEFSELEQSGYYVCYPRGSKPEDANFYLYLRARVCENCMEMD

| Binder | ratio of amounts bound (altered form / unaltered GLS3000 antibody) |
| --- | --- |
| B1 | 0.41 |
| B2 | 0.26 |
| B3 | 0.5 |
| B4 | 0.34 |
| B5 | 0.44 |
| B6 | 1.1 |
| B7 | 0.47 |
| B8 | 0.98 |
| B9 | 0.61 |
| B10 | 1.65 |
| B11 | 0.7 |
| B12 | 0.8 |
| B13 | 0.31 |
| B14 | 0.87 |
| B15 | 1.86 |
| B16 | 0.29 |

| Binder | ratio of amounts bound (altered form / unaltered GLS3000 antibody) |
| --- | --- |
| B17 | 0.29 |
| B18 | 0.61 |
| B19 | 0.99 |
| B20 | 1.04 |
| B21 | 0.61 |
| B22 | 0.34 |
| B23 | 0.85 |
| B24 | 0.88 |
| B25 | 0.92 |
| B26 | 0.29 |
| B27 | 1.19 |
| B28 | 0.86 |
| B29 | 0.75 |
| B30 | 0.83 |
| B31 | 0.89 |
| B32 | 0.7 |
